Test results: patent US20050153894A1, “p21 peptides” (Cyclacel Limited, priority 1999, published 2005)
Square brackets hold non-standard residues; d marks the D form. Phe(3-F) = N[C@@H](Cc1cccc(F)c1)C(=O)O; 1Nal = N[C@@H](Cc1cccc2ccccc12)C(=O)O; 2Nal = N[C@@H](Cc1ccc2ccccc2c1)C(=O)O; hPhe = N[C@@H](CCc1ccccc1)C(=O)O; Tic = O=C(O)[C@@H]1Cc2ccccc2CN1; Cha = N[C@@H](CC1CCCCC1)C(=O)O; Abu = CC[C@H](N)C(=O)O

Columns and labels:
[1] = target: CDK2/cyclin A (Homo sapiens, UniProt P20248); test: CDK2/cyclin A kinase assay, substrate pRb(773-928); type: biochemical; conditions: relative to H-His-Ala-Lys-Arg-Arg-Leu-Ile-Phe-NH2 (=1), pRb substrate, [ATP] = 100 μM
Description: Reactions were stopped on ice, followed by filtration through p81 filterplates (Whatman Polyfiltronics, Kent, UK).

[2] = target: Cyclin A (Homo sapiens, UniProt P20248); test: Cyclin A binding assay, immobilised biotinyl-Ahx-[…]NH2; conditions: relative to H-His-Ala-Lys-Arg-Arg-Leu-Ile-Phe-NH2 (=1)
Sequence of Cyclin A (P20248 whole entry): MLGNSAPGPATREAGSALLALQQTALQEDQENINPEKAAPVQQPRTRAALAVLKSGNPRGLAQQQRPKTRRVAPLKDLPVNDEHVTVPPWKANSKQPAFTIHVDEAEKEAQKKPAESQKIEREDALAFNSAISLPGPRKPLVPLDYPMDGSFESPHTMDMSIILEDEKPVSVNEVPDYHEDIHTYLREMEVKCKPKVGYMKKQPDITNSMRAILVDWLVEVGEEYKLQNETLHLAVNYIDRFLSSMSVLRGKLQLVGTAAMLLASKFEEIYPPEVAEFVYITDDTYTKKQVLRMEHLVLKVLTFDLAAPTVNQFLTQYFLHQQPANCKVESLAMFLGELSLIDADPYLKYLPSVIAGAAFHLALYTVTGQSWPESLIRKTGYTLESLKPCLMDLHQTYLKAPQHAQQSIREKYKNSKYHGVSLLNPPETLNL
Experimental: This was added to each well (100 μL). The plate was incubated for 1 h at room temperature with constant shaking. The plate was washed once quickly with TBS/BSA buffer (200 μL), followed by three more washes with TBS/BSA buffer (200 μL) for 5 min each. Serial dilutions of test peptides were prepared in a new plate (50 μL in each well). Cyclin A was diluted to 5 μg/50 μL with TBS/BSA buffer and this was then added to each well (50 μL). The solutions were mixed thoroughly with a pipette (5-6 times), before being incubated for 30 min at room temperature. This reaction mixture was then transferred to the biotinylated peptide: streptavidin-coated plate and incubated for 1 h at room temperature with constant shaking. The plate was washed once quickly with TBS/BSA buffer (200 μL), followed by three more washes with TBS/BSA buffer (200 μL) for 5 min each. The cyclin A antibody (Santa Cruz polyclonal) solution was diluted 1:200 with TBS/BSA buffer and this was then added to each well of the plate (100 μL. The plate was incubated for 1 h at room temperature with constant shaking. The plate was washed once quickly with TBS/BSA buffer (200 μl), followed by three more washes with TBS/BSA buffer (200 μL) for 5 min each. The anti-rabbit secondary antibody (goat anti-rabbit IgG peroxidase conjugate) was diluted 1:10,000 with TBS/BSA and this was then added to each well of the plate (100 μL). The plate was incubated for 1 h at room temperature with constant shaking. The plate was washed once quickly with TBS/BSA buffer (200 μL), followed by three more washes with TBS/BSA buffer (200 μL) for 5 min each. To each well was added the TMB-ELISA reagent (Pierce 1-Step™ Turbo TMB-ELISA; 100 μL) and the plate incubated for 1 min with constant shaking. The reaction was then quenched by the addition of 2 M aqueous H2SO4 (100 μL, each well). The UV absorbance of the each solution was measured spectrophotometrically at 450 nm. IC50 values were calculated from dose-response curves.

H-Ala-Ala-Lys-Arg-Arg-Leu-Ile Phe-NH2 (H-AAKRRLIF-NH2)
Relative activity Kinase Inhibition ([1]; His152 substitutions): 1.8 | Relative activity Cyclin A Binding ([2]; His152 substitutions): 2.5

H-Dab-Ala-Lys-Arg-Arg-Leu-Ile Phe-NH2 (XAKRRLIF; N-terminal Dab, C-terminal amide)
Relative activity Kinase Inhibition ([1]; His152 substitutions): 5 | Relative activity Cyclin A Binding ([2]; His152 substitutions): 0.4

H-His Ala-Lys-Arg-Arg-Ile-Ile Phe-NH2 (H-HAKRRIIF-NH2)
Relative activity Kinase Inhibition ([1]; Leu157 substitutions): 1.5 | Relative activity Cyclin A Binding ([2]; Leu157 substitutions): 0.2

H-His Ala-Lys-Arg-Arg-Leu-Val-Phe-NH2 (H-HAKRRLVF-NH2)
Relative activity Kinase Inhibition ([1]; Ile158 substitutions): 0.8 | Relative activity Cyclin A Binding ([2]; Ile158 substitutions): 1.5

H-His Ala-Lys-Arg-Pro-Leu-Ile Phe-NH2 (H-HAKRPLIF-NH2)
Relative activity Kinase Inhibition ([1]; Arg156 substitutions): <0.1 | Relative activity Cyclin A Binding ([2]; Arg156 substitutions): <0.1

H-His-Abu-Lys-Arg-Arg-Leu-Ile Phe-NH2 (H-H[Abu]KRRLIF-NH2; SMILES CC[C@H](NC(=O)[C@@H](N)Cc1c[nH]cn1)C(=O)N[C@@H](CCCCN)C(=O)N[C@@H](CCCNC(=N)N)C(=O)N[C@@H](CCCNC(=N)N)C(=O)N[C@@H](CC(C)C)C(=O)N[C@H](C(=O)N[C@@H](Cc1ccccc1)C(N)=O)[C@@H](C)CC)
Relative activity Kinase Inhibition ([1]; Ala153 substitutions): 5 | Relative activity Cyclin A Binding ([2]; Ala153 substitutions): 1.3

H-His-Ala-Abu-Arg-Arg-Leu-Ile Phe-NH2 (H-HA[Abu]RRLIF-NH2; SMILES CC[C@H](NC(=O)[C@H](C)NC(=O)[C@@H](N)Cc1c[nH]cn1)C(=O)N[C@@H](CCCNC(=N)N)C(=O)N[C@@H](CCCNC(=N)N)C(=O)N[C@@H](CC(C)C)C(=O)N[C@H](C(=O)N[C@@H](Cc1ccccc1)C(N)=O)[C@@H](C)CC)
Relative activity Kinase Inhibition ([1]; Lys154 substitutions): 0.8 | Relative activity Cyclin A Binding ([2]; Lys154 substitutions): 0.2

H-His-Ala-Ala-Arg-Arg-Leu-Ile Phe-NH2 (H-HAARRLIF-NH2)
Relative activity Kinase Inhibition ([1]; Lys154 substitutions): <0.1 | Relative activity Cyclin A Binding ([2]; Lys154 substitutions): 0.5

H-His-Ala-Arg-Arg-Arg-Leu-Ile Phe-NH2 (H-HARRRLIF-NH2)
Relative activity Kinase Inhibition ([1]; Lys154 substitutions): 5.7 | Relative activity Cyclin A Binding ([2]; Lys154 substitutions): 1.5

H-His-Ala-Leu-Arg-Arg-Leu-Ile Phe-NH2 (H-HALRRLIF-NH2)
Relative activity Kinase Inhibition ([1]; Lys154 substitutions): 0.1 | Relative activity Cyclin A Binding ([2]; Lys154 substitutions): 1.4

H-His-Ala-Lys-Ala-Arg-Leu-Ile Phe-NH2 (H-HAKARLIF-NH2)
Relative activity Kinase Inhibition ([1]; Arg155 substitutions): <0.1 | Relative activity Cyclin A Binding ([2]; Arg155 substitutions): <0.1

H-His-Ala-Lys-Arg-Ala-Leu-Ile Phe-NH2 (H-HAKRALIF-NH2)
Relative activity Kinase Inhibition ([1]; Arg156 substitutions): <0.1 | Relative activity Cyclin A Binding ([2]; Arg156 substitutions): <0.1

H-His-Ala-Lys-Arg-Arg-1Nap-Ile Phe-NH2 (H-HAKRR[1Nal]IF-NH2; SMILES CC[C@H](C)[C@H](NC(=O)[C@H](Cc1cccc2ccccc12)NC(=O)[C@H](CCCNC(=N)N)NC(=O)[C@H](CCCNC(=N)N)NC(=O)[C@H](CCCCN)NC(=O)[C@H](C)NC(=O)[C@@H](N)Cc1c[nH]cn1)C(=O)N[C@@H](Cc1ccccc1)C(N)=O)
Relative activity Kinase Inhibition ([1]; Leu157 substitutions): <0.1 | Relative activity Cyclin A Binding ([2]; Leu157 substitutions): <0.1

H-His-Ala-Lys-Arg-Arg-Cha-Ile Phe-NH2 (H-HAKRR[Cha]IF-NH2; SMILES CC[C@H](C)[C@H](NC(=O)[C@H](CC1CCCCC1)NC(=O)[C@H](CCCNC(=N)N)NC(=O)[C@H](CCCNC(=N)N)NC(=O)[C@H](CCCCN)NC(=O)[C@H](C)NC(=O)[C@@H](N)Cc1c[nH]cn1)C(=O)N[C@@H](Cc1ccccc1)C(N)=O)
Relative activity Kinase Inhibition ([1]; Leu157 substitutions): <0.1 | Relative activity Cyclin A Binding ([2]; Leu157 substitutions): <0.1

H-His-Ala-Lys-Arg-Arg-Leu-1Nap-Phe-NH2 (H-HAKRRL[1Nal]F-NH2; SMILES CC(C)C[C@H](NC(=O)[C@H](CCCNC(=N)N)NC(=O)[C@H](CCCNC(=N)N)NC(=O)[C@H](CCCCN)NC(=O)[C@H](C)NC(=O)[C@@H](N)Cc1c[nH]cn1)C(=O)N[C@@H](Cc1cccc2ccccc12)C(=O)N[C@@H](Cc1ccccc1)C(N)=O)
Relative activity Kinase Inhibition ([1]; Ile158 substitutions): 0.5 | Relative activity Cyclin A Binding ([2]; Ile158 substitutions): 0.5

H-His-Ala-Lys-Arg-Arg-Leu-Cha-Phe-NH2 (H-HAKRRL[Cha]F-NH2; SMILES CC(C)C[C@H](NC(=O)[C@H](CCCNC(=N)N)NC(=O)[C@H](CCCNC(=N)N)NC(=O)[C@H](CCCCN)NC(=O)[C@H](C)NC(=O)[C@@H](N)Cc1c[nH]cn1)C(=O)N[C@@H](CC1CCCCC1)C(=O)N[C@@H](Cc1ccccc1)C(N)=O)
Relative activity Kinase Inhibition ([1]; Ile158 substitutions): 0.3 | Relative activity Cyclin A Binding ([2]; Ile158 substitutions): 0.5

H-His-Ala-Lys-Arg-Arg-Leu-Ile-1Nap-NH2 (H-HAKRRLI[1Nal]-NH2; SMILES CC[C@H](C)[C@H](NC(=O)[C@H](CC(C)C)NC(=O)[C@H](CCCNC(=N)N)NC(=O)[C@H](CCCNC(=N)N)NC(=O)[C@H](CCCCN)NC(=O)[C@H](C)NC(=O)[C@@H](N)Cc1c[nH]cn1)C(=O)N[C@@H](Cc1cccc2ccccc12)C(N)=O)
Relative activity Kinase Inhibition ([1]; Phe159 substitutions): 0.2 | Relative activity Cyclin A Binding ([2]; Phe159 substitutions): <0.1

H-His-Ala-Lys-Arg-Arg-Leu-Ile-2Nap-NH2 (H-HAKRRLI[2Nal]-NH2; SMILES CC[C@H](C)[C@H](NC(=O)[C@H](CC(C)C)NC(=O)[C@H](CCCNC(=N)N)NC(=O)[C@H](CCCNC(=N)N)NC(=O)[C@H](CCCCN)NC(=O)[C@H](C)NC(=O)[C@@H](N)Cc1c[nH]cn1)C(=O)N[C@@H](Cc1ccc2ccccc2c1)C(N)=O)
Relative activity Kinase Inhibition ([1]; Phe159 substitutions): 1.2 | Relative activity Cyclin A Binding ([2]; Phe159 substitutions): 0.7

H-His-Ala-Lys-Arg-Arg-Leu-Ile-Cha-NH2 (H-HAKRRLI[Cha]-NH2; SMILES CC[C@H](C)[C@H](NC(=O)[C@H](CC(C)C)NC(=O)[C@H](CCCNC(=N)N)NC(=O)[C@H](CCCNC(=N)N)NC(=O)[C@H](CCCCN)NC(=O)[C@H](C)NC(=O)[C@@H](N)Cc1c[nH]cn1)C(=O)N[C@@H](CC1CCCCC1)C(N)=O)
Relative activity Kinase Inhibition ([1]; Phe159 substitutions): <0.1 | Relative activity Cyclin A Binding ([2]; Phe159 substitutions): <0.1

H-His-Ala-Lys-Arg-Arg-Leu-Ile-Hof-NH2 (H-HAKRRLI[hPhe]-NH2; SMILES CC[C@H](C)[C@H](NC(=O)[C@H](CC(C)C)NC(=O)[C@H](CCCNC(=N)N)NC(=O)[C@H](CCCNC(=N)N)NC(=O)[C@H](CCCCN)NC(=O)[C@H](C)NC(=O)[C@@H](N)Cc1c[nH]cn1)C(=O)N[C@@H](CCc1ccccc1)C(N)=O)
Relative activity Kinase Inhibition ([1]; Phe159 substitutions): <0.1 | Relative activity Cyclin A Binding ([2]; Phe159 substitutions): <0.1

H-His-Ala-Lys-Arg-Arg-Leu-Ile-Tic-NH2 (H-HAKRRLI[Tic]-NH2; SMILES CC[C@H](C)[C@H](NC(=O)[C@H](CC(C)C)NC(=O)[C@H](CCCNC(=N)N)NC(=O)[C@H](CCCNC(=N)N)NC(=O)[C@H](CCCCN)NC(=O)[C@H](C)NC(=O)[C@@H](N)Cc1c[nH]cn1)C(=O)N1Cc2ccccc2C[C@H]1C(N)=O)
Relative activity Kinase Inhibition ([1]; Phe159 substitutions): 0.3 | Relative activity Cyclin A Binding ([2]; Phe159 substitutions): <0.1

H-His-Ala-Lys-Arg-Arg-Leu-Ile-mFPhe-NH2 (H-HAKRRLI[Phe(3-F)]-NH2; SMILES CC[C@H](C)[C@H](NC(=O)[C@H](CC(C)C)NC(=O)[C@H](CCCNC(=N)N)NC(=O)[C@H](CCCNC(=N)N)NC(=O)[C@H](CCCCN)NC(=O)[C@H](C)NC(=O)[C@@H](N)Cc1c[nH]cn1)C(=O)N[C@@H](Cc1cccc(F)c1)C(N)=O)
Relative activity Kinase Inhibition ([1]; Phe159 substitutions): 0.8 | Relative activity Cyclin A Binding ([2]; Phe159 substitutions): 0.8
